These results are taken from the DeepSol protein solubility set.

The series in a line: soluble on expression in E. coli; label from the status in PepcDB or PDB records.
“MFAGCATYAGLNFDQLFGPQLVRERTASVETPQADFFQREVKPIVDNRCVVCHACYDAPCQLKLSSVEGIDRGASKALVYEGTRLTAAAPTRLFEDAETTQEWRDAGFHPVLNERDQSMAANLEAGLIARLLQQKERHPLPDQVQLEGFDFSIDREQTCPTIEEYEQYEKDNPNWGMPFGMPNLTNSEYHTLMTWLENGAIMNMHTPISDQEQAKINQYETLLNHSDLKNQLMSRYIYEHLFLSHLYFSELSEKPRFFTLVRSATPPGQPVKRISTRRPYDDPGVERVYYRIIPEQGTIVDKTHMPFALNKQRISNWKKWFIEADYSVTQLPSYEPEVAANPMTAFIDMPVKSRFKFMLDNAQNTIMAYIKGPVCRGQLALNVINDRFWVFFLDPDKADIPEVNEFYRSQADNLKLPAEQESNTLPVTNWVKYARQQARYLEAKSEFTNNWFKHGENLSTDVIWDGNGTNPNAALTVFRHFDSASVVQGLVGEQPKTVWILDYALLERIHYLLVAGFDVYGNFGHQLMTRMFMDFLRLEGESNFVTLLPADMRHQLQSSWYQDQSPQLSDFLQRNVKPFNQPTSVVYKTDDPKTELLNMMRKRLSPVLLPRYEITDTALSDKTEKELKRIGQVRGEGLQTVPQITMLMVRSKSGKDELFTLLHNNAHTNISSLFDEESNRDFANDDMTIVRGVVGSYPAAFFSLKENQVKEFVDQFSAIQNEADYVKLLDSFAIRRSSEKFWPFSDRIHNWYRTNQPIEFGLLDYNRFENR”: the “soluble on expression in E. coli” value is “not soluble”.
With “MISVNDFRTGLTISVDNALWQVLDFQHVKPGKGAAFVRSKLRNLRTGSVQEKTFRAGEKVEKAHIENRRMQYLYASGEAHVFMDNGTYEQIELGEKQIERELKFLKENMEVAIMTYQGEVLGVELPNTVELQVTETEPGIKGDTASNVTKPATLETGLVVQVPIFINEGEMLIINTGEGKYVSRA” the entry was “not soluble”; with “TIPKWWKEAVFYQVYPRSFKDTNGDGIGDINGIIEKLDYLKALGIDAIWINPHYDSPNTDNGYDIRDYRKIMKEYGTMEDFDRLISEMKKRNMRLMIDVVINHTSDQNEWFVKSKSSKDNPYRGYYFWKDAKEGQAPNNYPSFFGGSAWQKDEKTNQYYLHYFAKQQPDLNWDNPKVRQDLYAMLRFWLDKGVSGLRFDTVATYSKIPDFPNLTQQQLKNFAAEYTKGPNIHRYVNEMNKEVLSHYDIATAGEIFGVPLDQSIKFFDRRRDELNIAFTFDLIRLDRDSDQRWRRKDWKLSQFRQIIDNVDRTAGEYGWNAFFLDNHDNPRAVSHFGDDRPQWREPSAKALATLTLTQRATPFIYQGSELGMTNYPFKAIDEFDDIEVKGFWHDYVETGKVKADEFLQNVRLTSRDNSRTPFQWDGSKNAGFTSGKPWFKVNPNYQEINAVSQVTQPDSVFNYYRQLIKIRHDIPALTYGTYTDLDPANDSVYAYTRSLGAEKYLVVVNFKEQMMRYKLPDNLSIEKVIIDSNSKNVVKKNDSLLELKPWQSGVYKLNQ”, “soluble”.
For the sequence “MGVITDDVTIAQQALTHYDVSDNASLRLLNLSENATYLVEDGEHQSILRVHRQDYHQPHEIESELDWLAALRTDSDVTVPTVVPARDGRRVVTVDPADSDAVPRHVVHFEMVGGAEPDEESLTLDDFQTLGRITASLHEHSQRWTRPAGFGRFSWDWEHCLGDTPRWGRWQDAEGVGASETALLTRAQDLLHRKLEEYGSGPDRYGLIHADLRLANLLVDSSTPQRTITVIDFDDCGFGWYFYDFGTAVSFIEHDPRLGEWQESWVAGYRSRRELPAADEAMLPSFVFLRRLLLLAWMGSHTHSRESATKAISYAAGSCALAERYLSSDGLRLT”, the “soluble on expression in E. coli” value is “not soluble”.
With “MGSDKIHHHHHHMVLQHYFRHYCRSFCSPDDKALFMQCSRLTQVDFDQLTLGAQVLEADSHGAKVYLLTDGNFLKVFRRKRLISSALLRPYSQRFVDNAARLAQLGIPTLEVISQHKLDLPGRTAVLYRPLPGRTLLQMSRDDGFSWDTYLPRLIELIRQLHRSGVYFRSLHLGNVVVTPDQRLGLIDVADMRFLRPPLSARMIRRNVQHMVRYIERENLGDRFPLAAFEAALLTR” the entry was “not soluble”; with “MSLASLSLAPVNIFKAGADEERAETARLTSFIGAIAIGDLVKSTLGPKGMDKILLSSGRDASLMVTNDGATILKNIGVDNPAAKVLVDMSRVQDDEVGDGTTSVTVLAAELLREAESLIAKKIHPQTIIAGWREATKAAREALLSSAVDHGSDEVKFRQDLMNIAGTTLSSKLLTHHKDHFTKLAVEAVLRLKGSGNLEAIHIIKKLGGSLADSYLDEGFLLDKKIGVNQPKRIENAKILIANTGMDTDKIKIFGSRVRVDSTAKVAEIEHAEKEKMKEKVERILKHGINCFINRQLIYNYPEQLFGAAGVMAIEHADFAGVERLALVTGGEIASTFDHPELVKLGSCKLIEEVMIGEDKLIHFSGVALGEACTIVLRGATQQILDEAERSLHDALCVLAQTVKDSRTVYGGGCSEMLMAHAVTQLANRTPGKEAVAMESYAKALRMLPTIIADNAGYDSADLVAQLRAAHSEGNTTAGLDMREGTIGDMAILGITESFQVKRQVLLSAAEAAEVILRVDNIIKAAPRKRVPDHHEGHHHHHH”, “not soluble”.
As for “MLSVMRMQIPKTHPRYESLMKREKIIEALDKGILAKAGLIAHGRGETFDYLIGEKTAPIALEAIKAAAALLILAENPVISVNGNTVALAIDEVVELAKELNGKIEVNLFYRTKERELAIKRAFEEKFKDDIETGKIKILGIDDANKQIPNLDSLRGKVSEEGIFTADVVLVPLEDGDRAEALVNMGKKVIAIDLNPLSRTARKSTITIVDELTRAMPLLIKYVKEFKNKDREELLKIVEDFDNKKNLKDMIDYIAERLKNLSLEHHHHHH”, the entry is “soluble”; as for “MSLVPQGGPVLCRDEMEEWSASEAMLFEEALEKYGKDFNDIRQDFLPWKSLASIVQFYYMWKTTDRYIQQKRLKAAEAEGHHHHHH”, “not soluble”.
With “MNKGRIIQVMGPVVDIQFESGQLPDIYNAITIERPQGGTLTVEAAVHLGDNVVRCVAMASTDGLVRGLEAVDTGAPISVPVGKATLGRVFNVLGEPIDEQGEVNAEERHPIHRPAPEFEELSTADEILETGIKVIDLLAPYAKGGKIGLFGGAGVGKTVLIQELINNVAQEHGGLSVFAGVGERTREGNDLYHEMKDSGVISKTSMVFGQMNEPPGARLRVALTGLTMAEYFRDREGQDVLLFIDNIFRFTQAGSEVSALLGRMPSAVGYQPTLATEMGQLQERITSTKKGSITSIQAIYVPADDYTDPAPATTFAHLDATTNLERKLAEMGIYPAVDPLASTSRILSPAVVGEEHYRVARGVQQVLQRYNDLQDIIAILGMDELSDEDKLIVARARKIQRFLSQPFHVAEQFTGMPGKYVPVKETVRGFKEILEGKHDNLPEEAFYMVGTIDEAVEKAKKL” the entry was “soluble”; with “RREMTSYSDIDLILLHPEGSIPSGLEHFWYPIWDAKIRLDYTVRTPKECADMISAEPTAALALLDISHCSGDPQLTATTRCVVLEQWRRELKKNFNDVTDTAIARWNRSGSVVDMTHPDLKHGRGGLRDIELIRALALGNLCDKRPLGEERQLLLNIRTMLHQHAGRARDVLDPEFAVDVALDLGCEDRYDLSRSLAKAARTIDDATNAALSTARNLLPRRSSVRKAVRRPVDIDVVEVDGTLALSRTPNLEDPSLVLRVAAASARTGMTISESAWKQLETVPSMPPT”, “not soluble”; with “GMAEYEDRYWTSSDGLRLHFRAYEGDISRPPVLCLPGLTRNARDFEDLATRLAGDWRVLCPEMRGRGDSDYAKDPMTYQPMQYLQDLEALLAQEGIERFVAIGTSLGGLLTMLLAAANPARIAAAVLNDVGPEVSPEGLERIRGYVGQGRNFETWMHAARALQESSGDVYPDWDITQWLRYAKRIMVLGSSGRIAFDYDMKIAEPFEAPVGATPQVDMWPLFDALATRPLLVLRGETSDILSAQTAAKMASRPGVELVTLPRIGHAPTLDEPESIAAIGRLLERV”, “soluble”.
Regarding “MAILGLGTDIVEISRIQAVVERTGERLARRILSPSEWQHYQQHQQPVRFLAKRFAVKEAAAKAFGTGIRNGLAFNQFEVVNDALGKPTLRLHSRAAELAVELGVKSLHVTLADERRYACATVIIES”, the “soluble on expression in E. coli” value is reported as “not soluble”.
As for “GHMHTPFIVALDFPSKQEVERFLRPFAGTPLFVKVGMELYYQEGPAIVAFLKEQGHAVFLDLKLHDIPNTVKQAMKGLARVGADLVNVHAAGGRRMMEAAIEGLDAGTPSGRMRPRCIAVTQLTSTDERMLHEELWISRPLVETVAHYAALAKESGLDGVVCSANEAAFIKERCGASFLAVTPGIRFADDAAHDQVRVVTPRKARALGSDYIVIGRSLTRAADPLRTYARLQHEWNGGERESTTPT”, the entry is “soluble”; as for “MIKIDDEAITFVVQGPVQASASRQQIAGITEQCLNSIRRFFPKSTIILSTWKGQPLDGLDYDQVLELDDPGANTVFYDGQPIKLNNNRQMYSTHMGLKAVKTPYAVKLRTDNLLTGRQFVELYERYADLPRAQNYQFLTQRVLTSSTFFISSHYGHPVHFHKSDLFDFGLTQDLLTIWSDRWIPELHFTLKPGYKARHPATEQVLCLNWISALLDEEHHIESKTCDHAGLGENFWPQFMANNLLMDCPENIGLDVTERFYKRGNLALEYDLKDWLHLNQITSIPYDKKRLYRYYRNQIGRILKKIHSFN”, “not soluble”.
With “MSLLRALPEVAEPEGVDFIEIATGRLGETIRVLHQLGFRLGGHHCSKQDYQVWTQGDVRIVVCDRGVTGAPTTISAMGFDTPDPEAAHARAELLRAQTIDRPHIEGEVDLKGVYAPDGVELFFAGPSPDGMPEWLPEFGVEKQEAGLIEAIDHVNFAQPWQHFDEAVLFYTALMALETVREDEFPSPIGLVRNQVMRSPNDAVRLLLSVAPEDGEQGDFLNAAYPEHIALATADIVAVAERARKRGLDFLPVPENYYDDVQARFDLPQEFLDTLKENHLLYDRDENGEFLHFYTRTLGTLFFEVVERRGGFAGWGETNAPVRLAAQYREVRDLERGIPEGHHHHHH” the entry was “soluble”; with “IPEYVDWRQKGAVTPVKNQGSCGSCWAFSAVVTIEGIIKIRTGNLNQYSEQELLDCDRRSYGCNGGYPWSALQLVAQYGIHYRNTYPYEGVQRYCRSREKGPYAAKTDGVRQVQPYNQGALLYSIANQPVSVVLQAAGKDFQLYRGGIFVGPCGNKVDHAVAAVGYGPNYILIKNSWGTGWGENGYIRIKRGTGNSYGVCGLYTSSFYPVKN”, “soluble”; with “DEYLENLTDTPKHSKAYPIIKFEFTGRSVDAPLLSQASKKFGVELSILTSQIDYAGGVKFGYTIAEVEGDEDAITQTKVYLMENNVRVEVLGYVQ”, “not soluble”.
Consider “GSAGDVTNDLSHVRKIIVACDAGMGSSAMGAGVLRKKIQDAGLSQISVTNSAINNLPPDVDLVITHRDLTERAMRQVPQAQHISLTNFLDSGLYTSLTERLVAAQRHTENEVKVKDSLKDSFDDS”, for which the “soluble on expression in E. coli” value is on record as “soluble”.
With “MKNVGFIGWRGMVGSVLMDRMSQENDFENLNPVFFTTSQAGQKAPVFGGKDAGDLKSAFDIEELKKLDIIVTCQGGDYTNEVYPKLKATGWDGYWVDAASALRMKDDAIIVLDPVNQHVISEGLKKGIKTFVGGNCTVSLMLMAIGGLFEKDLVEWISVATYQAASGAGAKNMRELLSQMGLLEQAVSSELKDPASSILDIERKVTAKMRADNFPTDNFGAALGGSLIPWIDKLLPETGQTKEEWKGYAETNKILGLSDNPIPVDGLCVRIGALRCHSQAFTIKLKKDLPLEEIEQIIASHNEWVKVIPNDKEITLRELTPAKVTGTLSVPVGRLRKLAMGPEYLAAFTVGDQLLWGAAEPVRRILKQLVA” the entry was “soluble”; with “MNYEIKQEEKRTVAGFHLVGPWEQTVKKGFEQLMMWVDSKNIVPKEWVAVYYDNPDETPAEKLRCDTVVTVPGYFTLPENSEGVILTEITGGQYAVAVARVVGDDFAKPWYQFFNSLLQDSAYEMLPKPCFEVYLNNGAEDGYWDIEMYVAVQPKHH”, “soluble”.
